From US20250206828A1, “ANTI-ADENOSINE RECEPTOR (A2aR) ANTIBODIES AND THE USE THEREOF” (Adept Therapeutics Inc., priority 2022, published 2025) come the findings set out here.

In assay [1] the target is T1, human adenosine A2A receptor (A2aR) (human, UniProt P29274 1-412).
T1 construct: Assays used HEK293 cells stably overexpressing human A2aR (BPS Bioscience 79381), human A2aR-expressing CHO cells, or endogenous A2aR on human PBMC; also called human A2aR; hA2aR
Description: flow cytometry titration, HEK293-hA2aR cells, purified antibody. For orientation: In flow cytometry, cells or beads pass a laser one at a time.

The target of assay [2] is T1, human adenosine A2A receptor (A2aR). Description: flow cytometry, HEK293-hA2aR cells, supernatant 1 ug/ml.
Assay [3] has the same target. The assay is described as above. This is another data set of the same source.
The target is the same in assay [4]. The assay is described as above. The source holds these as a separate data set.

Substitutions are numbered along the chain they refer to. Names may count otherwise. Like-named read-outs stand apart in the source and are kept apart here.

T1 sequence (P29274 whole entry): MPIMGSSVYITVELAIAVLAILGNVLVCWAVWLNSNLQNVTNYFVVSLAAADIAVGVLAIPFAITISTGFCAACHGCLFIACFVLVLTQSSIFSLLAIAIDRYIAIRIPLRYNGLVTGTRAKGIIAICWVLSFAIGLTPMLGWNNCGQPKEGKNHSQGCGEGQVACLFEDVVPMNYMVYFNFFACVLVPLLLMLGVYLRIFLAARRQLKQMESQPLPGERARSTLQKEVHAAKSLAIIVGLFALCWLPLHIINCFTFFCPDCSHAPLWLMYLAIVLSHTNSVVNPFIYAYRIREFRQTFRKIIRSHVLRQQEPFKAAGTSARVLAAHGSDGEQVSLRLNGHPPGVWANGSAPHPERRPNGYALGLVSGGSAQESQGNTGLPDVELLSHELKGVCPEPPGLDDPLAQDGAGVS

B1: Hu3F6-H2/Hu3F6-L8 (antibody, human IgG1, V domains shown)
VH: EVQLVQSGAEVKKPGASVKVSCKTSGFAFTSYWMNWVRQAPGQGLEWMGRIDPSDSEAHYHHKFWGRVTMTVDTSTSTVYMELSSLRSEDTAVYYCLRSLYGKGDYWGHGTTVTVSS
VL: DVVMTQSPLSLPVTPGEPASISCRSSQSLVHRNGNTYLEWYLQKPGQSPQLLIYKVSNRFSGVPDRFSGSGSGTDFTLKISRVEAEDVGVYYCYQGSHVPLTFGGGTKVEIK
notes: Human IgG1 FES (L234F, L235E, P331S) and human Ig kappa constant domains; also called Hu3F6 VH2/VL8
Molecule B1 came in with a half-maximal effective concentration (EC50) in assay [1] of 0.76 nM. Further, the MFI in assay [2] is 1710 MFI.

B2: Hu3F8-H6/Hu3F8-L2 (antibody, human IgG1, V domains shown)
VH: EVQLVQSGAEVKKPGESLRISCKASGFTFTRYWMNWVRQMPGKGLEWIGRIDPSDSETHYNHKFWGHATLSVDKSSSTVYLQWSSLKASDTAMYYCLRSLYGKGDYWGQGTTVTVSS
VL: B1 VL with P15L, E17Q, L29I, R32S, L42Q, K44R, Q50R, L51R
notes: Human IgG1 FES (L234F, L235E, P331S) and human Ig kappa constant domains
In turn, B2 had an MFI in assay [3] of 285 MFI.

B3: Hu1B5-H6/Hu1B5-L4 (antibody, human IgG1, V domains shown)
VH: B2 VH with A24T, Y32F, S54Y, H59Q, G66D, L97G
VL: B1 VL with L29I, R32S, Y94F
notes: as for B2
On to B3, for which the MFI in assay [4] was found to be 1910 MFI.

B4: Hu1B5-H3/Hu1B5-L3 (antibody, human IgG1, V domains shown)
VH: EVQLVQSGAEVKKPGASVKVSCKTSGFTFTRFWMNWVRQAPGQGLEWIGRIDPYDSETQYNHKFWDRATLTVDTSSSTVYMELSSLRSEDTAVYYCGRSLYGKGDYWGQGTTVTVSS
VL: B1 VL with P15L, E17Q, L29I, R32S, L42Q, K44R, Q50R, Y94F
notes: as for B2
In assay [4], B4 registered an MFI of 1850 MFI.

B5: Hu1B5-H4/Hu1B5-L3 (antibody, human IgG1, V domains shown)
VH: B4 VH with T74K
VL: B1 VL with P15L, E17Q, L29I, R32S, L42Q, K44R, Q50R, Y94F
notes: as for B2
For the molecule B5, the MFI in assay [4] stood at 1860 MFI.

B6: Hu1B5-H2/Hu1B5-L2 (antibody, human IgG1, V domains shown)
VH: B4 VH with I48M, A68V, L70M, S76T
VL: B1 VL with P15L, E17Q, L29I, R32S, L42Q, K44R, Q50R, L51R, Y94F
notes: as for B2
In the case of B6, the MFI in assay [4] was determined as 243 MFI.

B7: Hu1B5-H2.1/Hu1B5-L2 (antibody, human IgG1, V domains shown)
VH: B4 VH with A68V, L70M, S76T
VL: B1 VL with P15L, E17Q, L29I, R32S, L42Q, K44R, Q50R, L51R, Y94F
notes: as for B2
As to B7, the MFI in assay [4] was determined as 225 MFI.

B8: Hu1B5-H5/Hu1B5-L2 (antibody, human IgG1, V domains shown)
VH: B4 VH with N61A, T74K
VL: B1 VL with P15L, E17Q, L29I, R32S, L42Q, K44R, Q50R, L51R, Y94F
notes: as for B2
B8 gave an MFI in assay [4] of 283 MFI.

B9: Hu1B5-H2.1/Hu1B5-L3 (antibody, human IgG1, V domains shown)
VH: B4 VH with A68V, L70M, S76T
VL: B1 VL with P15L, E17Q, L29I, R32S, L42Q, K44R, Q50R, Y94F
notes: as for B2
For B9, the MFI in assay [4] was 1860 MFI.

B10: Hu3F6-H2/Hu3F6-L3 (antibody, human IgG1, V domains shown)
VH: B1 VH
VL: B1 VL with P15L, E17Q, L42Q, K44R, Q50R
notes: Human IgG1 FES (L234F, L235E, P331S) and human Ig kappa constant domains; also called Hu3F6 VH2/VL3
Molecule B10 had an EC50 in assay [1] of 0.65 nM. In addition, in assay [2], the MFI is 1830 MFI.

B11: Hu1B5-H6/Hu1B5-L2 (antibody, human IgG1, V domains shown)
VH: B2 VH with A24T, Y32F, S54Y, H59Q, G66D, L97G
VL: B1 VL with P15L, E17Q, L29I, R32S, L42Q, K44R, Q50R, L51R, Y94F
notes: as for B2
Molecule B11 displayed an MFI in assay [4] of 359 MFI.

B12: Hu1B5-H3/Hu1B5-L2 (antibody, human IgG1, V domains shown)
VH: B4 VH
VL: B1 VL with P15L, E17Q, L29I, R32S, L42Q, K44R, Q50R, L51R, Y94F
notes: as for B2
In assay [4], B12 showed an MFI of 231 MFI.

B13: Hu3F6-H2/Hu3F6-L4 (antibody, human IgG1, V domains shown)
VH: B1 VH
VL: B1 VL with V2I, S7T, P12S, E17Q
notes: Human IgG1 FES (L234F, L235E, P331S) and human Ig kappa constant domains; also called Hu3F6 VH2/VL4
B13 yielded a half-maximal effective concentration (EC50) in assay [1] of 0.68 nM. The MFI in assay [2] was found to be 1590 MFI.

B14: Hu1B5-H4/Hu1B5-L2 (antibody, human IgG1, V domains shown)
VH: B4 VH with T74K
VL: B1 VL with P15L, E17Q, L29I, R32S, L42Q, K44R, Q50R, L51R, Y94F
notes: as for B2
B14 showed an MFI in assay [4] of 263 MFI.

B15: Hu1B5-H6/Hu1B5-L3 (antibody, human IgG1, V domains shown)
VH: B2 VH with A24T, Y32F, S54Y, H59Q, G66D, L97G
VL: B1 VL with P15L, E17Q, L29I, R32S, L42Q, K44R, Q50R, Y94F
notes: as for B2
In assay [4], B15 had an MFI of 1910 MFI.

B16: Hu3F6-H2/Hu3F6-L5 (antibody, human IgG1, V domains shown)
VH: B1 VH
VL: B1 VL with S7T, P12S, E17Q
notes: Human IgG1 FES (L234F, L235E, P331S) and human Ig kappa constant domains; also called Hu3F6 VH2/VL5
Regarding B16, in assay [1], the 50% effective concentration (EC50) is 0.53 nM. The MFI in assay [2] stood at 1790 MFI.

B17: Hu1B5-H1/Hu1B5-L3 (antibody, human IgG1, V domains shown)
VH: B4 VH with E1Q, T24A, I48M, A68V, L70M, V72R, S76T
VL: B1 VL with P15L, E17Q, L29I, R32S, L42Q, K44R, Q50R, Y94F
notes: as for B2
Regarding B17, the MFI in assay [4] stood at 1840 MFI.

B18: Hu1B5-H2/Hu1B5-L3 (antibody, human IgG1, V domains shown)
VH: B4 VH with I48M, A68V, L70M, S76T
VL: B1 VL with P15L, E17Q, L29I, R32S, L42Q, K44R, Q50R, Y94F
notes: as for B2
B18: the MFI in assay [4] is 1870 MFI.

B19: Hu1B5-H5/Hu1B5-L3 (antibody, human IgG1, V domains shown)
VH: B4 VH with N61A, T74K
VL: B1 VL with P15L, E17Q, L29I, R32S, L42Q, K44R, Q50R, Y94F
notes: as for B2
Turning to B19, the MFI in assay [4] was found to be 1950 MFI.

B20: Hu3F8-H2/Hu3F8-L4 (antibody, human IgG1, V domains shown)
VH: B1 VH with T24A, A28T, S31R, A58T, H61N, H109Q
VL: B1 VL with V2I, L29I, R32S
notes: as for B2
With B20, in assay [3], the MFI amounted to 1780 MFI.

B21: Hu3F8-H2/Hu3F8-L1 (antibody, human IgG1, V domains shown)
VH: B1 VH with T24A, A28T, S31R, A58T, H61N, H109Q
VL: B1 VL with P15L, E17Q, L29I, R32S, Y41F, L42Q, K44R, Q50R, L51R
notes: as for B2
Consider B21, for which, in assay [3], the MFI worked out at 16 MFI.

B22: Hu3F8-H1/Hu3F8-L4 (antibody, human IgG1, V domains shown)
VH: B1 VH with E1Q, T24A, A28T, S31R, A58T, H61N, V72R, H109Q
VL: B1 VL with V2I, L29I, R32S
notes: as for B2
For the molecule B22, the MFI in assay [3] worked out at 1750 MFI.

B23: Hu3F8-H1/Hu3F8-L1 (antibody, human IgG1, V domains shown)
VH: B1 VH with E1Q, T24A, A28T, S31R, A58T, H61N, V72R, H109Q
VL: B1 VL with P15L, E17Q, L29I, R32S, Y41F, L42Q, K44R, Q50R, L51R
notes: as for B2
In turn, B23 displayed an MFI in assay [3] of 9 MFI.

B24: Hu3F6-H3/Hu3F6-L8 (antibody, human IgG1, V domains shown)
VH: B1 VH with M48I, V68A, M70L, T76S
VL: B1 VL
notes: Human IgG1 FES (L234F, L235E, P331S) and human Ig kappa constant domains; also called Hu3F6 VH3/VL8
As for B24, in assay [1], a half-maximal response (EC50) required 0.76 nM. This molecule gave an MFI in assay [2] of 1830 MFI.

B25: Hu3F8-H5.1/Hu3F8-L3 (antibody, human IgG1, V domains shown)
VH: B4 VH with T24A, F32Y, Y54S, Q59H, N61A, D66G, T74K, S76T, G97L
VL: B1 VL with P15L, E17Q, L29I, R32S, L42Q, K44R, Q50R
notes: Human IgG1 FES (L234F, L235E, P331S) and human Ig kappa constant domains; also called Hu3F8 VH5.1/VL3
The molecule B25 showed an EC50 in assay [1] of 0.62 nM.

B26: Hu3F8-H1/Hu3F8-L2 (antibody, human IgG1, V domains shown)
VH: B1 VH with E1Q, T24A, A28T, S31R, A58T, H61N, V72R, H109Q
VL: B1 VL with P15L, E17Q, L29I, R32S, L42Q, K44R, Q50R, L51R
notes: as for B2
In turn, B26 gave an MFI in assay [3] of 10 MFI.

B27: Hu3F8-H5.1/Hu3F8-L5 (antibody, human IgG1, V domains shown)
VH: B4 VH with T24A, F32Y, Y54S, Q59H, N61A, D66G, T74K, S76T, G97L
VL: B1 VL with L29I, R32S
notes: Human IgG1 FES (L234F, L235E, P331S) and human Ig kappa constant domains; also called Hu3F8 VH5.1/VL5
As to B27, in assay [1], the EC50 was determined as 0.69 nM.

B28: Hu1B5-H3/Hu1B5-L5 (antibody, human IgG1, V domains shown)
VH: B4 VH
VL: DIVMTQSPDSLAVSLGERATINCRSSQSIVHSNGNTYLEWYQQKPGQPPKLLIYKVSNRFSGVPDRFSGSGSGTDFTLTISSLQAEDVAVYYCFQGSHVPLTFGGGTKVEIK
notes: as for B2
In assay [4], B28 showed an MFI of 686 MFI.

B29: Hu1B5-H6/Hu1B5-L5 (antibody, human IgG1, V domains shown)
VH: B2 VH with A24T, Y32F, S54Y, H59Q, G66D, L97G
VL: B28 VL
notes: as for B2
As for B29, the MFI in assay [4] was found to be 702 MFI.

B30: Hu1B5-H4/Hu1B5-L5 (antibody, human IgG1, V domains shown)
VH: B4 VH with T74K
VL: B28 VL
notes: as for B2
Regarding B30, the MFI in assay [4] is 872 MFI.

B31: Hu1B5-H5/Hu1B5-L5 (antibody, human IgG1, V domains shown)
VH: B4 VH with N61A, T74K
VL: B28 VL
notes: as for B2
With B31, the MFI in assay [4] was 823 MFI.

Broadly, the EC50 is the concentration needed to bring the measured effect to its halfway point. Read a low EC50 as greater potency.
